Measurements from patent US20140296146A1, “Thermostable Inhibitors of Activation of the Blood Clotting System Through Contact with Foreign Surfaces” (Synapse B.V., priority 2011, published 2014).
Blank lines part the entries; values can stand above or below the molecule they belong to. Where a SMILES comes first, the peptide text is derived from it. Bridges are numbered along the chain shown (N, C = ends). Where no end group is shown, it is not given here.

Tests used:
h-FXIIa [1] = biological target: T1, h-FXIIa (Homo sapiens, UniProt P00748); assay: Effect of inhibitors on hydrolysis of S2302 by h-FXIIa; format: biochemical
T1 construct: purchased Enzyme Research Laboratories FXIIa 1212A
T1 sequence (P00748 373-615 limits assumed): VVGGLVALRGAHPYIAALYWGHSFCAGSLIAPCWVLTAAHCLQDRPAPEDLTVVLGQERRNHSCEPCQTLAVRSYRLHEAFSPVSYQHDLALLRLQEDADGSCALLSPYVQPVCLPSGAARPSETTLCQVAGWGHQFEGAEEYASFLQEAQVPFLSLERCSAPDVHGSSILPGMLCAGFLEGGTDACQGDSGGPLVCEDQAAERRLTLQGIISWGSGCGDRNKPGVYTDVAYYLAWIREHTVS
T1 sequence (P00748 20-372 partner limits assumed): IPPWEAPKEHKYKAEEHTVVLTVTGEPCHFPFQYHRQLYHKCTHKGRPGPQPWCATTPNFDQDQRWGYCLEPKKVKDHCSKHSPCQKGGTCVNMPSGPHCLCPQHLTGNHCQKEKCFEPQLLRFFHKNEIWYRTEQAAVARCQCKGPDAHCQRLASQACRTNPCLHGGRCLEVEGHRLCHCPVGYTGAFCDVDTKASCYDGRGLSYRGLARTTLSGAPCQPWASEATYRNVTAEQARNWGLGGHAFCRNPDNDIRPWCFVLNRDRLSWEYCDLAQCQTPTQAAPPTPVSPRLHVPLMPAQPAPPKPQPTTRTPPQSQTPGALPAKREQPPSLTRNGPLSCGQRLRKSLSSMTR
Method: (§1) Materials • S2302 From Chromogenic, lot # N0398718 SEQ0860, exp. date 2012-07. Water added on 7 Oct. […] On 3 Aug. […] Product code FXIIa 1212A, lot #FXIIa 2520PL. Bottle with 0.5 mg was reconstituted with 370 μl pure water. […] Buffer 4 mM NaAc, 150 mM NaCl (pH 5.3). Preparation was divided into 20 μl amounts and frozen at −80° C. • Hepes735 140 mM NaCl, 20 mM Hepes, 0.02% NaN3 (pH 7.35). • BSA5 Hepes735+5 mg/ml BSA. • CTI Prepared on 17 Dec. 2004, 0.141 mg/ml, i.e. 0.141/12028=11.7*10^−6 M (11.7 μM). One portion was thawed and divided into 3 parts. Part 1 was frozen at −80° C.; part 2 was kept at RT; and part 3 was incubated 30 min at 95° C. and then kept at RT.
(§2) Stock FXIIa was diluted 700× in BSA5. The inhibitor was diluted in BSA5 as indicated. Wells contained 70 μl diluted FXIIa (5 nM final), 70 μl inhibitor and 20 μl S2302 (475 or 462.5 μM final). The reaction was started after 5 min heating on the heating plate with S2302. Filters 405 nm and 490 nm reference. Found mΔA/min was multiplied by 2.14 to get the figure for a 1 cm path.
The residual activity (V) was fitted against the PTI concentration with equation:
(§3) V=(E+(sqrt(Ê2+2*E*(Ki−I)+Î2+2*I*Ki+Kî2)−E−I−Ki)/2)*kcat*S/(Km+S)
(§4) in which E=[FXIIa], Ki is the dissociation constant, I=[Inhibitor], kcat and Km are Michaelis constants and S=[S2302].

h-FXIIa [2] = biological target: T1, h-FXIIa; assay: Stability of CTI, PTI and TICA at RT and at 95° C., read as inhibition of h-FXIIa; format: physicochemical
Method: as §1, with “Part 1 was frozen at −80° C.; part 2 was kept at RT; and part 3 was incubated 30 min at 95° C. and then kept at RT.” left out
as §2, with “ΔmA/min” for “mΔA/min”
The residual activity (V) was fitted against the inhibitor concentration with equation:
as §3, §4
To calculate the concentration of I the equation I=x·(x−E−Ki)/(x−E) was used. In this equation is I the calculated inhibitor concentration, x=the residual activity of FXIIa (free FXIIa), E the total FXIIa concentration (=9.33 nM), and Ki the dissociation or inhibitor constant.

contact activation = assay: Thrombin generation (CAT) in platelet poor plasma contact activated with kaolin; format: biochemical, human; conditions: concentration that prolongs clotting time of kaolin contact activated plasma four times
Method: Thrombin generation was carried out according to WO2003/093831.
Following a double centrifugation at 2500×g for 15 min at room temperature, platelet poor plasma (PPP) was collected from the upper half volume of plasma supernatant, quick frozen and stored at −80° C. The absence of platelet and leucocyte in PPP was checked with an ADVIA 120 counter (Bayer Diagnostics, NY, USA).
Recombinant human tissue factor Innovin® was obtained from Dade Behring (Marburg, Germany) and used at a final concentration of 0.5 pM in PRP and 1 or 5 pM in PPP samples. The phospholipid vesicles used at a final concentration of […] were obtained from Avanti Polar Lipids (Alabaster, Ala., USA) and consisted of 20 mol % phosphatidylserine (PS), 20 mol % phosphatidylethanolamine (PE) and 60 mol % phosphatidylcholine (PC) and were prepared by extrusion method (9,10). Kaolin light (hydrated aluminium silicate) was obtained from Baker Harrison ltd, (Ilford, UK).
Hepes-buffered saline contained 20 mM Hepes (Sigma Aldrich, l'Ile d'Abeau Chesnes, France), 140 mM NaCl and 5 mg/mL bovine serum albumin (BSA) (Euromedex, Souffelweyersheim, France), pH 7.35. This buffer was stored at −20° C. until use. A fresh mixture of fluorogenic substrate and CaCl2 was prepared before each experiment. Fluorogenic substrate, Z-Gly-Gly-Arg-AMC, was obtained from Bachem (Bubendorf, Switzerland). The mixture of fluorogenic substrate 2.5 mM and CaCl2 0.1 M was prepared using buffer containing Hepes 20 mM and 60 mg/mL BSA, pH 7.35. The Calibrator with the activity of 600 nM human thrombin was obtained from Thrombinoscope BV (Maastricht, The Netherlands). Transparent, round bottom Greiner microtiter plates (Greiner ref 65204, Poitiers, France) were used.
Thrombin generation was measured using Calibrated Automated Thrombography (CAT) according to the methodology of WO2003/093831 and a 96-well plate fluorometer (Fluoroscan Ascent Reader, Thermolab systems OY, Helsinki, Finland) equipped with a 390/460 nm filter set. Briefly, 80 μL of plasma is dispensed into the wells of round-bottom 96 well-microtiter plates. 20 μL of a mixture containing tissue factor and phospholipids is added to the PPP sample; alternatively, in order to obtain contact activation, the citrated plasma is preincubated for at least 10 min with 1 mg/ml of Kaolin light. The starting reagent (20 μL per well) contains fluorogenic substrate and CaCl2. […] The most important parameters that can be derived from CAT are lag time, endogenous thrombin potential corresponding to the area under the CAT curve, peak height of thrombin and time to peak.

h-FXIIa [3] = biological target: T2, h-FXIIa (human, UniProt P00748 20-615); assay: S2302 hydrolysis by h-FXIIa (5.01 nM); inhibitor kept at -80° C.
T2 construct: also called factor XIIa
T2 sequence (looked up): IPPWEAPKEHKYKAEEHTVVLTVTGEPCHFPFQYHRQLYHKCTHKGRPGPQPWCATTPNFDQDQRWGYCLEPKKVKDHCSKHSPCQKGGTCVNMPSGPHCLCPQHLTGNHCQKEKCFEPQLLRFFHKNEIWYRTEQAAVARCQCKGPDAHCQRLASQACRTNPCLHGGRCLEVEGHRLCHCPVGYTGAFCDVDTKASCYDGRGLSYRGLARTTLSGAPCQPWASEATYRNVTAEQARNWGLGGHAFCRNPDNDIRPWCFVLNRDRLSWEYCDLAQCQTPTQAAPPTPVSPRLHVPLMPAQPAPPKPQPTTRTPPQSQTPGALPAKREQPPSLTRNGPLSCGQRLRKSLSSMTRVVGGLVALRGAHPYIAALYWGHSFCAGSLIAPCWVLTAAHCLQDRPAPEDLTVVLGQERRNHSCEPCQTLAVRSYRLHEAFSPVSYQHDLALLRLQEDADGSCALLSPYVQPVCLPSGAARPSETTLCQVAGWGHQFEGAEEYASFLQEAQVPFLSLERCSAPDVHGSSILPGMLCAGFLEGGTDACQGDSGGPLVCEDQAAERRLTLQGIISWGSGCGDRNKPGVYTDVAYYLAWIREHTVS
Method: as §2, with “ΔmA/min” for “mΔA/min”

h-FXIIa [4] = biological target: T2, h-FXIIa; assay: S2302 hydrolysis by h-FXIIa (5.01 nM); inhibitor at RT during 72 hrs, against -80° C.
Method: as §2, with “ΔmA/min” for “mΔA/min”

h-FXIIa [5] = biological target: T2, h-FXIIa; assay: S2302 hydrolysis by h-FXIIa, fit of residual activity
Method: as §2, §4

h-FXIIa [6] = biological target: T2, h-FXIIa; assay: S2302 hydrolysis by h-FXIIa (5 nM), fit of residual activity; dissociation constant of the complex
Method: as §2, §4

h-FXIIa [7] = biological target: T2, h-FXIIa; assay: S2302 hydrolysis by h-FXIIa (5.01 nM); inhibitor 30 min 95° C.
Method: as §2, with “ΔmA/min” for “mΔA/min”

h-FXIIa [8] = biological target: T2, h-FXIIa; assay: S2302 hydrolysis by h-FXIIa (5.01 nM); inhibitor at RT during 72 hrs
Method: as §2, with “ΔmA/min” for “mΔA/min”

h-FXIIa [9] = biological target: T2, h-FXIIa; assay: S2302 hydrolysis by h-FXIIa (5.01 nM); inhibitor 30 min 95° C., against -80° C.
Method: as §2, with “ΔmA/min” for “mΔA/min”

h-FXIIa [10] = biological target: T2, h-FXIIa; assay: S2302 hydrolysis by h-FXIIa (5.01 nM); inhibitor kept at -80° C. (reference)
Method: as §2, with “ΔmA/min” for “mΔA/min”

h-FXIIa [11] = biological target: T2, h-FXIIa; assay: activity of TICA1 disulfide variants against TICA1 with 3 disulfides (FIG. 5); assay not named

Molecule: CC[C@H](C)[C@@H]1NC(=O)[C@H](CCCNC(=N)N)NC(=O)[C@@H]2CCCN2C(=O)[C@@H](NC(=O)[C@@H](NC(=O)[C@@H](N)CCCNC(=N)N)C(C)C)CSSC[C@@H]2NC(=O)[C@H](CCC(=O)O)NC(=O)[C@H](C)NC(=O)[C@H](CC(C)C)NC(=O)[C@@H]3CSSC[C@@H](C(=O)NCC(=O)O)NC(=O)[C@H](Cc4ccc(O)cc4)NC(=O)CNC(=O)[C@H](Cc4c[nH]cn4)NC(=O)[C@H](CCC(=O)O)NC(=O)[C@H](CC(C)C)NC(=O)[C@H](CSSC[C@H](NC(=O)[C@H](CCC(=O)O)NC(=O)[C@H](CCSC)NC(=O)[C@H](CC(C)C)NC1=O)C(=O)N[C@@H](CCCCN)C(=O)N[C@@H](CCCCN)C(=O)N[C@@H](CC(=O)O)C(=O)N[C@@H](CO)C(=O)N[C@@H](CC(=O)O)C(=O)N3)NC(=O)[C@H](C(C)C)NC2=O [TICA2] (H-RVCPRILMECKKDSDCLAECVCLEHGYCG-OH; disulfide 3-20, 10-22, 16-28 (inferred); N-terminus and C-terminus assumed)
Ki (h-FXIIa [1]; Ki, Table 2, inhibitory activity of different polypeptides): 109 nM
Ki (h-FXIIa [1]; ki F.XIIa (ng/ml), Before heating): 109 nM
Res. Act. (%) (h-FXIIa [2]; inhibitor 30 min 95° C.): 99%
Res. Act. (%) (h-FXIIa [2]; inhibitor at RT during 72 hrs): 105%
Res. Act. (%) (h-FXIIa [2]; inhibitor kept at −80° C.): 100%
4 × lag-time (ng/ml) (contact activation; After heating): 31.9 ng/mL
4 × lag-time (μM) (contact activation; After heating): 9.8 µM
4 × lag-time (ng/ml) (contact activation; Before heating): 31.1 ng/mL
4 × lag-time (μM) (contact activation; Before heating): 9.6 µM

Molecule: RVCPRILMKAKKDSDALAECVALEHGYAG (disulfide 3-20) [TICA1 with 1 disulfide bond (C3-C20)]
activity (%) (h-FXIIa [11]): 0.003%

Molecule: RVAPRILMKCKKDSDALAEAVCLEHGYAG (disulfide 10-22) [TICA1 with 1 disulfide bond (C10-C22)]
activity (%) (h-FXIIa [11]): 0.003%

Molecule: RVAPRILMKAKKDSDCLAEAVALEHGYCG (disulfide 16-28) [TICA1 with 1 disulfide bond (C16-C28)]
activity (%) (h-FXIIa [11]): 0.006%

More lines, now with the values ahead:

Ki (h-FXIIa [3]): 251 nM
Res. Act. (%) (h-FXIIa [4]): 106%
Ki (h-FXIIa [5]): 251 nM
Ki (h-FXIIa [6]): 251 nM
Ki (h-FXIIa [7]): 264 nM
Ki (h-FXIIa [8]): 267 nM
Res. Act. (%) (h-FXIIa [9]): 105%
Res. Act. (%) (h-FXIIa [10]): 100%
Molecule: squash trypsin inhibitor (STI), the serpin from Cucurbita Maxima seeds

activity (%) (h-FXIIa [11]): 0.2%
Molecule: RVCPRILMKCKKDSDALAECVCLEHGYAG (disulfide 10-22, 3-20) [TICA1 with 2 disulfide bonds (C3-C20, C10-C22)]

activity (%) (h-FXIIa [11]): 0.3%
Molecule: RVAPRILMKCKKDSDCLAEAVCLEHGYCG (disulfide 10-22, 16-28) [TICA1 with 2 disulfide bonds (C10-C22, C16-C28)]
